This series can be described thus: yeast display, Sf9 membrane polyspecificity reagent, FACS + sequencing; frameworks hold sequencing errors. The gist of the method:
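Polyreactivity labels are assigned by the sorting gate from which each nanobody was recovered. The gates were low and high (top ~1%), set on anti-HA fluorescence for expression and streptavidin fluorescence for reagent binding. Before sorting, galactose-induced (36–48 hours) yeast display cells were stained for 1 hour at 4 °C with 10% biotinylated, detergent-solubilized Sf9 membrane reagent.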
As to “QVQLVESGGGLVQAGGSLRLSCAASGRIFYFYAIGWYRQAPGKERELVASITSAGSTYYADSVKGRFTISRDNAKNTVYLQMNSLKPADTAVYYCARVRWGSRGGYIAYYGGGYWGQGTQVTVSS”, the “polyreactivity (PSR sort gate)” value is “high polyreactivity”.
On to “QVQLVESGGGLVQAGGSLRLSCAASGRIFYFYAMGWYRQAPGKERELVAAISTSGGSTYYADSVKGRFTISRDNAKNTVYLQMNRLKPEDTAVYYCASRFRYYGSEYDYWGQGTQVTVSS”, for which the “polyreactivity (PSR sort gate)” value is reported as “low polyreactivity”.
As for “QVQLVESGGGLVQAGGSLRLSCAASGRIFYGNAMGWYRQAPGKERELVATISSSGGRTTYADSVKGRFTISRDNAKNTVYLQMNSLKPEDTAVYYCNARYRTRSLKYYYWGQGTQVTVSS”, the entry is “high polyreactivity”; as for “QVQLVESGGGLVQAGGSLRLSCAASGRIFYGNVIGWYRQAPGKERELVADIYYDGGSTYYADSVKGRFTISRDNAKNTVYLQMNSLKPEDTAVYYCNKREVFIYGTTYDYWGQGTQVTVSS”, “low polyreactivity”.
As for “QVQLVESGGGLVQAGGSLRLSCAASGRIFYGNVMGWYRQAPGKERELVAVITSGGNTNYADSVKGRFTISRDNAKNTVYLQMNSLKPEDTAVYYCATAVVAGVWGYDYWGQGTQVSVSS”, the entry is “low polyreactivity”; as for “QVQLVESGGGLVQAGGSLRLSCAASGRIFYGYAMGWYRQAPGKERELVAAISSSGGSTYYADSVKGRFTISRDNAKNTVYLQMNSLKPEDTAVYYCNAQRYRPGYWYDYWGQGTQVTVSS”, “high polyreactivity”; as for “QVQLVESGGGLVQAGGSLRLSCAASGRIFYGYAMGWYRQAPGKERELVAAITWSGGRTYYADSVKGRFTISRDNAKNTVYLQMNSLKPEDTAVYYCNRPRRTSPSTYYHWGQGTQVTVSS”, “low polyreactivity”.
To “QVQLVESGGGLVQAGGSLRLSCAASGRIFYGYAMGWYRQAPGKERELVASISRRGSSTYYADSVKGRFTISRDNAMNTVYLQMNSLKPEDTAVYYCAAGYYPFNYWGQGTQVTVSS” belongs “high polyreactivity”; to “QVQLVESGGGLVQAGGSLRLSCAASGRIFYHNAMGWYRQAPGKEREFVAAINWRGGNTYYADSVKGRFTISRDNAKITVYLQMNSLKPEDTAVYYCNALYKRYTDYDYWGQGTQVTVSS”, “high polyreactivity”.
On to “QVQLVESGGGLVQAGGSLRLSCAASGRIFYHNAMGWYRQAPGKERELVAAISWSGGNTYYADSVKGRFTISRDNAKNTVYLQMNSLKPEDTAVYYCNRYWYRDRLWLYDYWGQGTQVTVSS”, for which the “polyreactivity (PSR sort gate)” value is listed as “high polyreactivity”.
On to “QVQLVESGGGLVQAGGSLRLSCAASGRIFYHNARGWYRQAPGKERELVAAIYSTGGSTYYADSVKGRFTISRDNAKNTVYLQMNSLKPEDTAVYYCATQYFRKYGYDYWGKGTQVTVSS”, for which the “polyreactivity (PSR sort gate)” value was “low polyreactivity”.
As for “QVQLVESGGGLVQAGGSLRLSCAASGRIFYHYAMGWYRQAPGKERELVATISASGSRTSYADSVKGRFTISRDNAKNTVYLQMNSLKPEDTGVYYCAADAPFWYGLDYWGQGTQVTVSS”, the entry is “high polyreactivity”; as for “QVQLVESGGGLVQAGGSLRLSCAASGRIFYIHAMGWYRQAPGKERELVAAITSNGGSTYYADSVKGRFTISRDNAKNTVYLQMNCLKPEDTAVYYCAARRYKVSRTSYGYGYWGQGTQVTVSS”, “high polyreactivity”.
To “QVQLVESGGGLVQAGGSLRLSCAASGRIFYINAMGWYRQAPGKERELVAAISGSGGDTYYADSVKGRFTISRDNAKNTVYLQMNSMKPEDTAVYYCGAEVYTWGQGTQVTVSS” belongs “low polyreactivity”; to “QVQLVESGGGLVQAGGSLRLSCAASGRIFYINAMGWYRQAPGKERELVAAITSNGGSTYYADSVKGRFTISRDNAKNTVYLQMNSLKPEDTSVYYCAVSPRVPFRKPVFTPYNMYYWGQGTQVTVSS”, “high polyreactivity”.
To “QVQLVESGGGLVQAGGSLRLSCAASGRIFYIYAMGWYRQAPGKERELVATITGSGGGTYYADSVKGRFTISRDNAKNTVYLQMNSLKPEDTAVYYCAAQVLTDPDNYWGQGTQVTVSS” belongs “low polyreactivity”.
“QVQLVESGGGLVQAGGSLRLSCAASGRIFYKYAMGWYRQAPGKERELVAAISSGGNTNYADSVKGRFTISRDNAKNTVYLQMNSLKPEDTAVYYCNAKRAYYRGYYPDNYWGQGTQVTVSS”: the “polyreactivity (PSR sort gate)” value is on record as “high polyreactivity”.
As for “QVQLVESGGGLVQAGGSLRLSCAASGRIFYKYAMGWYRQAPGKERELVAVINRGGTTYYADSVKGRFTISRDNGKNTVYLQMNSLKPDDTAVYYCNTVADYRRFGYWGQGTQVTVSS”, the entry is “high polyreactivity”.
In the case of “QVQLVESGGGLVQAGGSLRLSCAASGRIFYKYVMGWYRQAPGKERELVAAINRSGGTTYYADSVKGRFTISRDNAKNTVYLQMNSLKPEDTAVYYCNATLPDYWPYYYYQGGDDYWGQGTQVTVSS”, the “polyreactivity (PSR sort gate)” value is recorded as “low polyreactivity”.
As for “QVQLVESGGGLVQAGGSLRLSCAASGRIFYLNVMGWYRQAPGKERELVAAITRRDVTTYADSVKGRFTISRDNAKNTVYLQMNSLKPEDTAVYYCNAEYVPYYEYESWGQGTQVTVSS”, the entry is “low polyreactivity”; as for “QVQLVESGGGLVQAGGSLRLSCAASGRIFYLYAMGWYRQAPGKERELVAGITSGGRTNYADSVKGRFTISRDNAKNTVYLQMNSLKPEDTAVYYCAAFYWGRYTGYYWGQGTQVTVSS”, “high polyreactivity”.
As to “QVQLVESGGGLVQAGGSLRLSCAASGRIFYLYAMGWYRQAPGKERELVAGITSGGRTNYADSVKGRFTISRDNAKNTVYLQMNSLKPEDTAVYYCAAYYWGRYTGYYWGQGTQVTVSS”, the “polyreactivity (PSR sort gate)” value was “high polyreactivity”.
As for “QVQLVESGGGLVQAGGSLRLSCAASGRIFYLYAMGWYRQAPGKERELVATINTSGGITYYADSVKGRFTISRDNAKNTVYLQMNSLKPEDTAVYYCNADWEWQYFYFRPGGYWGQGTQVTVSS”, the entry is “low polyreactivity”; as for “QVQLVESGGGLVQAGGSLRLSCAASGRIFYLYAMGWYRQATGKERELVAAITWSGGSTTYADSVKGRFTISRDTAKNTVYLQMNSLNPEDTAVYYCNADGWIFPSFSPMDYWGQGTQVTVSS”, “low polyreactivity”.
To “QVQLVESGGGLVQAGGSLRLSCAASGRIFYNNAMGWYRQAPGKERELVAGISRSSGRTYYADSVKGRFTISRDIAKNTVYLQMNSLKPEDTAVYYCNTVSWPLSSKYYYWGQGTQVTVSS” belongs “high polyreactivity”.
To “QVQLVESGGGLVQAGGSLRLSCAASGRIFYNYAMGWSRQAPGKERELVAANSGSGGSTYYADSVKGRFTISRDSAMNTVYFQMNSLKPEDTAVYYCSTSGPQYYSRNFDYWGQGTQVTVSS” belongs “low polyreactivity”.
In the case of “QVQLVESGGGLVQAGGSLRLSCAASGRIFYNYAMGWYRPAPGKDRVLVAAISVSGGSTYYADSEKGRFTISRDNAKNTVYLQMNSLKPEDTAVYYCAARRDRGYTREYWGQGTQVTVST”, the “polyreactivity (PSR sort gate)” value is recorded as “high polyreactivity”.
To “QVQLVESGGGLVQAGGSLRLSCAASGRIFYNYAMGWYRQAPGKERELVAAISGSGGSTYYADSVKGRFTISRDNAKNTVYLQMNSLTPEDTAVYYCSTSGPQYYSRNFDYWGQGTQVTVSS” belongs “low polyreactivity”; to “QVQLVESGGGLVQAGGSLRLSCAASGRIFYNYAMGWYRQAPGKERELVAAISGSGGSTYYADSVKGRFTISRDNAMNTVYLQMNSLKPEDTAVYYCSTSGPQYYSRNFDYWGQGTQVTVSS”, “low polyreactivity”.
As for “QVQLVESGGGLVQAGGSLRLSCAASGRIFYPNVMGWYRQAPGKERELVAAISASGGRTYYADSVKGRFTISRDNAKNTVYLQMNSLKPEDTAVYYCAADTVPSTRSWDTRYWEYEYWGQGTQVTVSS”, the entry is “low polyreactivity”; as for “QVQLVESGGGLVQAGGSLRLSCAASGRIFYPYAMGWYRQAPGKERELVAAISWSTGNTYYADSVKGRFTISRDNAKNTVYLQMNSLKPEDTAVYYCNARLAPVRRYWYSGYDYWGQGTQVTVSS”, “high polyreactivity”.
As for “QVQLVESGGGLVQAGGSLRLSCAASGRIFYPYAMGWYRQAPGKEWELVAAINRSAGSTSYADSVKGRFTISRDNAKNTVYLQMKSLKPEDTAVYYCAAQGRWHRHFDYWGQGTQVNVSS”, the entry is “high polyreactivity”; as for “QVQLVESGGGLVQAGGSLRLSCAASGRIFYPYSMGWYRQAPGKERELVASINYRGGSTYYADSVNGRFTISRDNAKNTVYLQMNSLKPEDTAVYYCNAVRGFYRYSSSMGYWGQGTQVTVSS”, “high polyreactivity”; as for “QVQLVESGGGLVQAGGSLRLSCAASGRIFYPYVMGWYRQAPGKERELVAAISASGGRTYYADSVKGRFTISRDNAKNTVYLQMNSLKPEDTAVYYCAAQGWRYYRTVVPMDYWGQGTQVTVSS”, “low polyreactivity”.
For “QVQLVESGGGLVQAGGSLRLSCAASGRIFYPYVMGWYRQAPGKERELVAAISDSTGSTYYADSVKGRFTISRDNAKNTVYLQMNSLKPEDTAVYYCAAGWFYATYWRFYYWGQGTQVTVSS”, the “polyreactivity (PSR sort gate)” value was “low polyreactivity”.
To “QVQLVESGGGLVQAGGSLRLSCAASGRIFYQNAMGWYRQAPGKERELVADISSGGSTYYADSVKGRFTISRDNAKNTVYLQMNSLKPEDTAVYYCAAEGQLFDLYDYWGQGTQVTVSS” belongs “low polyreactivity”; to “QVQLVESGGGLVQAGGSLRLSCAASGRIFYRNAMGWYRPAPGKERELVAAISGSGGSTSYADSVKGRFTISRDNAKNTVYLQMNSLKPEDTAVYYCAAYKLYWGQGTQVTVSS”, “high polyreactivity”.
To “QVQLVESGGGLVQAGGSLRLSCAASGRIFYRNAMGWYRQAPGKERELVAAISSSTGSTYYADSVKGRFTISRDNAKNTVYLQMNSLKPEDTAVYYCNTARNRARYYYWGQGTQVTVSS” belongs “high polyreactivity”.
For “QVQLVESGGGLVQAGGSLRLSCAASGRIFYRNAMGWYRQAPGKERELVAAITIGTNTYYADSVKGRFTISRDNAKITVYLQMNSLKPEDTAVYYCAVAVFLYTGGVDYWGQGTQVTVSS”, the “polyreactivity (PSR sort gate)” value is listed as “low polyreactivity”.
As for “QVQLVESGGGLVQAGGSLRLSCAASGRIFYRYAMGWYIQAPAKERELFAAITGSGGSTYYADSVKGRFTISRDNAKNTVYFQMNSLKPEDTAVYYCNAVERSAFRGVRFDYDYWGQGTQVTLSS”, the entry is “high polyreactivity”.
Regarding “QVQLVESGGGLVQAGGSLRLSCAASGRIFYRYAMGWYRQAPGKERELVAGITRGGSTYYADSVKGRFTISRDNAKNTVYLQMNSLKPEDTAVYYCNVRWSPAGTGLLDFWGQGSQVTVSS”, the “polyreactivity (PSR sort gate)” value is listed as “high polyreactivity”.

The values are drawn from the nanobody polyreactivity screen of Harvey et al. (2022).
